Test results published in US20250237661A1 (MESO SCALE TECHNOLOGIES, published 2025).

Molecular target: T1, angiotensin-converting enzyme 2 (ACE2), labeled with a detection label (human, UniProt Q9BYF1 18-740)
T1 construct: also called labeled ACE2
Assay: labeled ACE2 on immobilized Mixed Panel antigens, ECL

T1 sequence (Q9BYF1 18-740 limits assumed): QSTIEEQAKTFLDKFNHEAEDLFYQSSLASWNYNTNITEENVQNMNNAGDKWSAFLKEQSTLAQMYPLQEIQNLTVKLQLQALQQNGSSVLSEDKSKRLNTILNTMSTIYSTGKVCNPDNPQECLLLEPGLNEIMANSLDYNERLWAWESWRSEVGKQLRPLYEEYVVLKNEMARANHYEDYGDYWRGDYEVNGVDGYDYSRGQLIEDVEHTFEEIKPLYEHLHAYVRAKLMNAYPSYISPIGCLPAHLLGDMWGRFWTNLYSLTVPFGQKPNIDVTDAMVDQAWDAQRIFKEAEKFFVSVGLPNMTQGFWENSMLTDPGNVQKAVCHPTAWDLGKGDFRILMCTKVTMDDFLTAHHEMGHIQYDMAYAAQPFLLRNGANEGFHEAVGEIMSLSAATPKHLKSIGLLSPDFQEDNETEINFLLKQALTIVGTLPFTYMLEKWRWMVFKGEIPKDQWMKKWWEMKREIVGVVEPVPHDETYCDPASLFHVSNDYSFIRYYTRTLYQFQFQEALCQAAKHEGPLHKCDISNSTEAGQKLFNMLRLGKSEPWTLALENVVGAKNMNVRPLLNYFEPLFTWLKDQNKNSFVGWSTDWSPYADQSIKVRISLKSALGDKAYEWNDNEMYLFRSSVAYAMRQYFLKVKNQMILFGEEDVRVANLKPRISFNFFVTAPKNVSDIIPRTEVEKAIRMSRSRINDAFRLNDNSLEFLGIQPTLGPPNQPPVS

B1: HCoV-OC43 S protein (other)
chain: AVIGDLKCTSDNINDKDTGPPPISTDTVDVTNGLGTYYVLDRVYLNTTLFLNGYYPTSGSTYRNMALKGSVLLSRLWFKPPFLSDFINGIFAKVKNTKVIKDRVMYSEFPAITIGSTFVNTSYSVVVQPRTINSTQDGDNKLQGLLEVSVCQYNMCEYPQTICHPNLGNHRKELWHLDTGVVSCLYKRNFTYDVNADYLYFHFYQEGGTFYAYFTDTGVVTKFLFNVYLGMALSHYYVMPLTCNSKLTLEYWVTPLTSRQYLLAFNQDGIIFNAEDCMSDFMSEIKCKTQSIAPPTGVYELNGYTVQPIADVYRRKPNLPNCNIEAWLNDKSVPSPLNWERKTFSNCNFNMSSLMSFIQADSFTCNNIDAAKIYGMCFSSITIDKFAIPNGRKVDLQLGNLGYLQSFNYRIDTTATSCQLYYNLPAANVSVSRFNPSTWNKRFGFIEDSVFKPRPAGVLTNHDVVYAQHCFKAPKNFCPCKLNGSCVGSGPGKNNGIGTCPAGTNYLTCDNLCTPDPITFTGTYKCPQTKSLVGIGEHCSGLAVKSDYCGGNSCTCRPQAFLGWSADSCLQGDKCNIFANFILHDVNSGLTCSTDLQKANTDIILGVCVNYDLYGILGQGIFVEVNATYYNSWQNLLYDSNGNLYGFRDYIINRTFMIRSCYSGRVSAAFHANSSEPALLFRNIKCNYVFNNSLTRQLQPINYFDSYLGCVVNAYNSTAISVQTCDLTVGSGYCVDYSKNRRSRGAITTGYRFTNFEPFTVNSVNDSLEPVGGLYEIQIPSEFTIGNMVEFIQTSSPKVTIDCAAFVCGDYAACKSQLVEYGSFCDNINAILTEVNELLDTTQLQVANSLMNGVTLSTKLKDGVNFNVDDINFSPVLGCLGSECSKASSRSAIEDLLFDKVKLSDVGFVEAYNNCTGGAEIRDLICVQSYKGIKVLPPLLSENQISGYTLAATSASLFPPWTAAAGVPFYLNVQYRINGLGVTMDVLSQNQKLIANAFNNALYAIQEGFDATNSALVKIQAVVNANAEALNNLLQQLSNRFGAISASLQEILSRLDALEAEAQIDRLINGRLTALNAYVSQQLSDSTLVKFSAAQAMEKVNECVKSQSSRINFCGNGNHIISLVQNAPYGLYFIHFSYVPTKYVTARVSPGLCIAGDRGIAPKSGYFVNVNNTWMYTGSGYYYPEPITENNVVVMSTCAVNYTKAPYVMLNTSIPNLPDFKEELDQWFKNQTSVAPDLSLDYINVTFLDLQVEMNRLQEAIKVLNQSYINLKDIGTYEYYVKWP
B1: no binding.
